T1: hnRNP H1 (recombinant) (UniProt P31943 1-449)
T1 sequence: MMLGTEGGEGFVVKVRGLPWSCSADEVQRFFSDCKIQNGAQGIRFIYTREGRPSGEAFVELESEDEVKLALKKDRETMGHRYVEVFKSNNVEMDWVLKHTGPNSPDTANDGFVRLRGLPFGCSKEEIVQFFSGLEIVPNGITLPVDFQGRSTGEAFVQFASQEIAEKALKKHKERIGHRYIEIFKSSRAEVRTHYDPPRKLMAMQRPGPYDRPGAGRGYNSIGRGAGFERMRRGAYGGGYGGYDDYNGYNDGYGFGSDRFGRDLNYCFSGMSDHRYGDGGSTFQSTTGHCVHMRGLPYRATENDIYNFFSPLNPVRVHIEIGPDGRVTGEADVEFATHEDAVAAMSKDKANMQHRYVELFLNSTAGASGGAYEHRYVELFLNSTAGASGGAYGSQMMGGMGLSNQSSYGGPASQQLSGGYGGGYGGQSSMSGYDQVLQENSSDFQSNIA

B1: 4R-7dG (ssRNA)
RNA: GGGGCCGGGGCCGGGGCCGGGGCC
modifications: all G replaced by 7-deaza-G (transcribed with 7-deaza-GTP)
B2: 4R (structured_RNA)
RNA: GGGGCCGGGGCCGGGGCCGGGGCC

Target: T1, hnRNP H1 (recombinant)
Assay: EMSA; 30 nM tRNA; EMSA: 50 mM Tris pH 8, 50 mM NaCl, 2 mM EDTA, 0.5% BSA, 0.2% CHAPS, 0.3 nM RNA, 30 nM tRNA, 0-640 nM H1, 30 min 37 C, native 6% PAGE. UV crosslinking: ~1 nM RNA in U87 nuclear extract
Conditions: protein: recombinant, (pRSET-C vector, Ni-NTA), label: 32P

Binder | Kd (G-quadruplex destabilized) | Kd (G-quadruplex, can be intramolecular)
B1 | 13.5 ± 3 nM | 
B2 |  | 75.5 ± 14 nM
